Here are results for 2 molecules from publication PMC9063451.

Test [1] addresses BotI-like toxin (Buthus occitanus tunetanus) (UniProt P01488).
Test [2] shares this target. As to the kind of experiment: SPR.

B1: NbBotI-17 (VHH)
VHH: QVQLQESGGGPVQAGGSLRLSCAASGFTDSNKNVHWFRQVPGKQCERVSTITSNGVTNYADSVKGRFTASRDNSKNTVYLQMNTLKTEDTAVYYCVSVYIWESIGPSQRCRGQGTQVTVSS
As a reminder, the Kd is the concentration at which binding is half-saturated. A word on the koff: it is a measure of how fast the partners let go of each other. The low end stands for a long-lived complex, the high end for a short-lived complex. Usually kon stands for the second-order rate constant of association. B1: the neutralisation of the toxin's lethality in Swiss mice (i.c.v. injection after 1 h preincubation at 37°C); 2 or 4 molar excess of Nb: 50% neutralisation at 6 and 7 LD50 (LD50 of toxin (50% neutralised)) in test [1] came out at 7. In test [2], this molecule yielded a Kd of 4.72 nM, a koff of 0.0308 s⁻¹ and an on-rate (kon) of 6.52e+06 M⁻¹ s⁻¹.

B2: NbBotI-01 (VHH)
VHH: QVQLQESGGGLVQPGGSLRLSCAASGFSFTVYYMSWVRQTPGKGLEWVSGINRDGSIIDYADSVKGRFTISRDNAENTLYLEMNSRKSEDTALNDCTPHVRGGRYRTRGQGTQVTVSS
In test [2], B2 yielded a Kd of 0.0953 nM, a koff of 0.000464 s⁻¹ and a kon of 4.87e+06 M⁻¹ s⁻¹.
